In PMC9482650, “Quantitative fragmentomics allow affinity mapping of interactomes” (Nature Communications, 2022):

Legend:
Experiment in all cases: holdup assay
Design in all cases: key: below the threshold = too weak to quantify, mostly under pKd 3.1 to 4
Conditions in all cases: plain residues with an end cap or a label only (N-terminal biotin on a linker: ado-ado)
AHNAK1, Q09666 = molecular target: AHNAK1, Q09666
APBA1_1, Q02410 = molecular target: T1, APBA1_1, Q02410
T1 sequence (Q02410 651-752, limits assumed, looked up): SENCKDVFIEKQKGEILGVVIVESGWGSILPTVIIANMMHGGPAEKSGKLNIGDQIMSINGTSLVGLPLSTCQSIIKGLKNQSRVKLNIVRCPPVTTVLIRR

APBA1_2, Q02410 = molecular target: T2, APBA1_2, Q02410
T2 sequence (Q02410 742-832, limits assumed, looked up): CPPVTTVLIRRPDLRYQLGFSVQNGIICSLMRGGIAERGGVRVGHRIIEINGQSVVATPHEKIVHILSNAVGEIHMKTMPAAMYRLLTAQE

DFNB31_2, Q9P202 = molecular target: T3, DFNB31_2, Q9P202
T3 sequence (Q9P202 274-371, limits assumed, looked up): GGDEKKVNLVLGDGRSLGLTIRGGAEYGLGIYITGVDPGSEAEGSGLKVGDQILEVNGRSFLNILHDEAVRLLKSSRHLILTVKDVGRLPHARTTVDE

DLG1_2, Q12959 = molecular target: DLG1_2, Q12959
DLG1_3, Q12959 = molecular target: DLG1_3, Q12959
DLG3_3, Q92796 = molecular target: T4, DLG3_3, Q92796
T4 sequence (Q92796 374-475, limits assumed, looked up): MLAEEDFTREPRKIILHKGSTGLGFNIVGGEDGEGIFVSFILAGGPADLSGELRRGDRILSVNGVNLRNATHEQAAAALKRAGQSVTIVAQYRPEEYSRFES

FRMPD2_3, Q68DX3 = molecular target: FRMPD2_3, Q68DX3
GRIP1_4, Q9Y3R0 = molecular target: T5, GRIP1_4, Q9Y3R0
T5 sequence (Q9Y3R0 467-571, limits assumed, looked up): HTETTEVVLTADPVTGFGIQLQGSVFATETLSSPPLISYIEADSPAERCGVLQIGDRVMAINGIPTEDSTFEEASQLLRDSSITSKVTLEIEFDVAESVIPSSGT

GRIP1_7, Q9Y3R0 = molecular target: T6, GRIP1_7, Q9Y3R0
T6 sequence (Q9Y3R0 999-1096, limits assumed, looked up): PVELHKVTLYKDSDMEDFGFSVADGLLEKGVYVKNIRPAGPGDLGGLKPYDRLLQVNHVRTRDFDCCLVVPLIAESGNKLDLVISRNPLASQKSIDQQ

HTRA2, O43464 = molecular target: HTRA2, O43464
Inadl_2, Q8NI35 = molecular target: Inadl_2, Q8NI35
Inadl_3, Q8NI35 = molecular target: Inadl_3, Q8NI35
Inadl_5, Q8NI35 = molecular target: Inadl_5, Q8NI35
Inadl_6, Q8NI35 = molecular target: Inadl_6, Q8NI35
LNX1_2, Q8TBB1 = molecular target: LNX1_2, Q8TBB1
LNX1_3, Q8TBB1 = molecular target: LNX1_3, Q8TBB1
MAGI3_2, Q5TCQ9 = molecular target: MAGI3_2, Q5TCQ9
MPP7, Q5T2T1 = molecular target: T7, MPP7, Q5T2T1
T7 sequence (Q5T2T1 134-230, limits assumed, looked up): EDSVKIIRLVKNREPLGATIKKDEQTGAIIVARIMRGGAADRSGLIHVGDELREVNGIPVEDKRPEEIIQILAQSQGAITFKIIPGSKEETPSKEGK

NHERF3_4, Q5T2W1 = molecular target: T8, NHERF3_4, Q5T2W1
T8 sequence (Q5T2W1 373-468, limits assumed, looked up): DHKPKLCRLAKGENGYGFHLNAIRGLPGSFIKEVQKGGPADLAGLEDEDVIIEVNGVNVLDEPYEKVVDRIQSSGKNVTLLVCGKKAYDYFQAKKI

PDZD2_2, O15018 = molecular target: T9, PDZD2_2, O15018
T9 sequence (O15018 329-429, limits assumed, looked up): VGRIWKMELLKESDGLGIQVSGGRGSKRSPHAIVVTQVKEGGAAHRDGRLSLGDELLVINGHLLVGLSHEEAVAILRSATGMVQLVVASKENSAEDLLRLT

RADIL, Q96JH8 = molecular target: T10, RADIL, Q96JH8
T10 sequence (Q96JH8 971-1071, limits assumed, looked up): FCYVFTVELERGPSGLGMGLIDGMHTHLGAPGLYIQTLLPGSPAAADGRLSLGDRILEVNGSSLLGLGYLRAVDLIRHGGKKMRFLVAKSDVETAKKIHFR

SCRIB_2, Q14160 = molecular target: SCRIB_2, Q14160
SNTG2, Q9NY99 = molecular target: T11, SNTG2, Q9NY99
T11 sequence (Q9NY99 68-166, limits assumed, looked up): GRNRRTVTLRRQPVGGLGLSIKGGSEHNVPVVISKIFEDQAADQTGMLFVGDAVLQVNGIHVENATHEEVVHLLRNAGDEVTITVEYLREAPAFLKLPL

SNX27, Q96L92 = molecular target: SNX27, Q96L92
TJP1_2, Q07157 = molecular target: TJP1_2, Q07157
TJP1_3, Q07157 = molecular target: TJP1_3, Q07157
Chain of TJP1_3, Q07157 (Q07157 416-512): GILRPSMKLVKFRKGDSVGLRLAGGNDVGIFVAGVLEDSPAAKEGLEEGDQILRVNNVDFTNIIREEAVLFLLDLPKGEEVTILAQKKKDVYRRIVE

Chain of DLG1_2, Q12959 (Q12959 314-412): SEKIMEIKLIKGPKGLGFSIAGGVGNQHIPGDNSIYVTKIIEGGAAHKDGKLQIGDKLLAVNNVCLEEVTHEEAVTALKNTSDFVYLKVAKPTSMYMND
Chain of AHNAK1, Q09666 (Q09666 4-100): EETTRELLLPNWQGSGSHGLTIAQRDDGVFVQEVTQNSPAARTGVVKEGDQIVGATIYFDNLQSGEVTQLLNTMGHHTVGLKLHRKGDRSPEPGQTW
Chain of Inadl_6, Q8NI35 (Q8NI35 1058-1167): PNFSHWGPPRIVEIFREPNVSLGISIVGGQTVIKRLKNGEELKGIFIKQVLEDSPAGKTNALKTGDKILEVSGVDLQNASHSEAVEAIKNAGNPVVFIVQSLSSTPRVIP
Chain of MAGI3_2, Q5TCQ9 (Q5TCQ9 398-503): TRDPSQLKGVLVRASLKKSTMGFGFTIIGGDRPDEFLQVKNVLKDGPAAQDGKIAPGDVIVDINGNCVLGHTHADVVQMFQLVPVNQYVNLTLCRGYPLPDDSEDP
Chain of TJP1_2, Q07157 (Q07157 181-274): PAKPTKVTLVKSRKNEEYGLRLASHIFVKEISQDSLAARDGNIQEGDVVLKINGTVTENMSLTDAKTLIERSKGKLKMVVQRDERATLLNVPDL
Chain of FRMPD2_3, Q68DX3 (Q68DX3 1073-1166): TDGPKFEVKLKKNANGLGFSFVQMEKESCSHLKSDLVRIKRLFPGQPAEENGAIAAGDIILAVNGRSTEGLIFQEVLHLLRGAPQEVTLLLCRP
Chain of LNX1_2, Q8TBB1 (Q8TBB1 371-470): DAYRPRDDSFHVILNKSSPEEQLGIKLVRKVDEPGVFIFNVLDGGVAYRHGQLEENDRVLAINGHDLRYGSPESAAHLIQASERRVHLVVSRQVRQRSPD
Chain of Inadl_5, Q8NI35 (Q8NI35 673-780): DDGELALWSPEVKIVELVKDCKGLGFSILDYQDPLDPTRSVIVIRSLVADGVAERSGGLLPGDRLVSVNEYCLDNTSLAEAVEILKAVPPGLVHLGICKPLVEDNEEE
Chain of Inadl_3, Q8NI35 (Q8NI35 359-469): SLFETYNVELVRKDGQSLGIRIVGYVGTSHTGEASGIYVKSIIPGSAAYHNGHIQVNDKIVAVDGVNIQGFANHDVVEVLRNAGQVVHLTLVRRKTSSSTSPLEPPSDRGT
Chain of HTRA2, O43464 (O43464 355-458): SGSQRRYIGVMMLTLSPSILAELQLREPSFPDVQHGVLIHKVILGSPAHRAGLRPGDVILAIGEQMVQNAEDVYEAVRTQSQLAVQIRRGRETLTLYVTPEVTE
Chain of DLG1_3, Q12959 (Q12959 457-571): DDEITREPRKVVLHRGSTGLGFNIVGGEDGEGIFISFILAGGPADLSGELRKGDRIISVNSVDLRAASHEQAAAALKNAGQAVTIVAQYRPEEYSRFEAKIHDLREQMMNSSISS
Chain of Inadl_2, Q8NI35 (Q8NI35 238-335): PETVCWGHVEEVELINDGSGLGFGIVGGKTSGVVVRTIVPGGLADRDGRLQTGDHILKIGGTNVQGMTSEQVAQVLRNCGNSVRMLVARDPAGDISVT
Chain of LNX1_3, Q8TBB1 (Q8TBB1 500-596): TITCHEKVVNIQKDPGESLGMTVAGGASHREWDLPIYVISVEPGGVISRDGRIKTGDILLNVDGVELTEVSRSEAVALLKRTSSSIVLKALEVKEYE
Chain of SCRIB_2, Q14160 (Q14160 857-960): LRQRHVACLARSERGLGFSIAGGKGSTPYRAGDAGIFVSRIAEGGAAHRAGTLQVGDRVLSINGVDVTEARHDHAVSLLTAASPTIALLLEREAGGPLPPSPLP

B1: PKP4, Q99569 (peptide)
chain: QYPGSPDSWV
pKd (AHNAK1, Q09666): 3.51
pKd (APBA1_1, Q02410): below the threshold
pKd (APBA1_2, Q02410): 4.36
pKd (DFNB31_2, Q9P202): 3.62
pKd (DLG1_2, Q12959): 4.68
pKd (DLG1_3, Q12959): below the threshold
pKd (DLG3_3, Q92796): below the threshold
pKd (FRMPD2_3, Q68DX3): below the threshold
pKd (GRIP1_4, Q9Y3R0): below the threshold
pKd (GRIP1_7, Q9Y3R0): 3.7
pKd (HTRA2, O43464): 4.05
pKd (Inadl_2, Q8NI35): below the threshold
pKd (Inadl_3, Q8NI35): 3.63
pKd (Inadl_5, Q8NI35): 3.87
pKd (Inadl_6, Q8NI35): 4.21
pKd (LNX1_2, Q8TBB1): 3.78
pKd (LNX1_3, Q8TBB1): below the threshold
pKd (MAGI3_2, Q5TCQ9): below the threshold
pKd (MPP7, Q5T2T1): below the threshold
pKd (NHERF3_4, Q5T2W1): below the threshold
pKd (PDZD2_2, O15018): 6.06
pKd (RADIL, Q96JH8): 4.89
pKd (SCRIB_2, Q14160): 4.82
pKd (SNTG2, Q9NY99): 3.62
pKd (SNX27, Q96L92): 4.72
pKd (TJP1_2, Q07157): 3.76
pKd (TJP1_3, Q07157): 3.68

B2: MAP7D2, Q96T17 (peptide)
chain: GQETPLNTFC
pKd (AHNAK1, Q09666): below the threshold
pKd (APBA1_1, Q02410): below the threshold
pKd (APBA1_2, Q02410): below the threshold
pKd (DFNB31_2, Q9P202): below the threshold
pKd (DLG1_2, Q12959): below the threshold
pKd (DLG1_3, Q12959): below the threshold
pKd (DLG3_3, Q92796): below the threshold
pKd (FRMPD2_3, Q68DX3): below the threshold
pKd (GRIP1_4, Q9Y3R0): below the threshold
pKd (GRIP1_7, Q9Y3R0): below the threshold
pKd (HTRA2, O43464): below the threshold
pKd (Inadl_2, Q8NI35): below the threshold
pKd (Inadl_3, Q8NI35): below the threshold
pKd (Inadl_5, Q8NI35): below the threshold
pKd (Inadl_6, Q8NI35): below the threshold
pKd (LNX1_2, Q8TBB1): below the threshold
pKd (LNX1_3, Q8TBB1): below the threshold
pKd (MAGI3_2, Q5TCQ9): below the threshold
pKd (MPP7, Q5T2T1): below the threshold
pKd (NHERF3_4, Q5T2W1): below the threshold
pKd (PDZD2_2, O15018): 4.03
pKd (RADIL, Q96JH8): below the threshold
pKd (SCRIB_2, Q14160): below the threshold
pKd (SNTG2, Q9NY99): 3.7
pKd (SNX27, Q96L92): 3.49
pKd (TJP1_2, Q07157): below the threshold
pKd (TJP1_3, Q07157): below the threshold

B3: JAM3, Q9BX67 (peptide)
chain: DFRHKSSFVI
pKd (AHNAK1, Q09666): below the threshold
pKd (APBA1_1, Q02410): below the threshold
pKd (APBA1_2, Q02410): below the threshold
pKd (DFNB31_2, Q9P202): below the threshold
pKd (DLG1_2, Q12959): below the threshold
pKd (DLG1_3, Q12959): below the threshold
pKd (DLG3_3, Q92796): below the threshold
pKd (FRMPD2_3, Q68DX3): below the threshold
pKd (GRIP1_4, Q9Y3R0): below the threshold
pKd (GRIP1_7, Q9Y3R0): below the threshold
pKd (HTRA2, O43464): below the threshold
pKd (Inadl_2, Q8NI35): below the threshold
pKd (Inadl_3, Q8NI35): 4.26
pKd (Inadl_5, Q8NI35): below the threshold
pKd (Inadl_6, Q8NI35): below the threshold
pKd (LNX1_2, Q8TBB1): below the threshold
pKd (LNX1_3, Q8TBB1): below the threshold
pKd (MAGI3_2, Q5TCQ9): below the threshold
pKd (MPP7, Q5T2T1): 3.79
pKd (NHERF3_4, Q5T2W1): below the threshold
pKd (PDZD2_2, O15018): below the threshold
pKd (RADIL, Q96JH8): 3.96
pKd (SCRIB_2, Q14160): below the threshold
pKd (SNTG2, Q9NY99): below the threshold
pKd (SNX27, Q96L92): below the threshold
pKd (TJP1_2, Q07157): below the threshold
pKd (TJP1_3, Q07157): below the threshold

B4: UQCRC2, P22695 (peptide)
chain: LGHTPFVDEL
pKd (AHNAK1, Q09666): below the threshold
pKd (APBA1_1, Q02410): below the threshold
pKd (APBA1_2, Q02410): 3.75
pKd (DFNB31_2, Q9P202): below the threshold
pKd (DLG1_2, Q12959): below the threshold
pKd (DLG1_3, Q12959): below the threshold
pKd (DLG3_3, Q92796): below the threshold
pKd (FRMPD2_3, Q68DX3): below the threshold
pKd (GRIP1_4, Q9Y3R0): below the threshold
pKd (GRIP1_7, Q9Y3R0): below the threshold
pKd (HTRA2, O43464): below the threshold
pKd (Inadl_2, Q8NI35): below the threshold
pKd (Inadl_3, Q8NI35): 3.59
pKd (Inadl_5, Q8NI35): below the threshold
pKd (Inadl_6, Q8NI35): below the threshold
pKd (LNX1_2, Q8TBB1): below the threshold
pKd (LNX1_3, Q8TBB1): below the threshold
pKd (MAGI3_2, Q5TCQ9): below the threshold
pKd (MPP7, Q5T2T1): below the threshold
pKd (NHERF3_4, Q5T2W1): below the threshold
pKd (PDZD2_2, O15018): below the threshold
pKd (RADIL, Q96JH8): 3.66
pKd (SCRIB_2, Q14160): below the threshold
pKd (SNTG2, Q9NY99): below the threshold
pKd (SNX27, Q96L92): 3.99
pKd (TJP1_2, Q07157): below the threshold
pKd (TJP1_3, Q07157): below the threshold

B5: ADRB1, P08588 (peptide)
chain: RPGFASESKV
pKd (AHNAK1, Q09666): below the threshold
pKd (APBA1_1, Q02410): below the threshold
pKd (APBA1_2, Q02410): 3.82
pKd (DFNB31_2, Q9P202): below the threshold
pKd (DLG1_2, Q12959): 4.49
pKd (DLG1_3, Q12959): below the threshold
pKd (DLG3_3, Q92796): 3.7
pKd (FRMPD2_3, Q68DX3): below the threshold
pKd (GRIP1_4, Q9Y3R0): below the threshold
pKd (GRIP1_7, Q9Y3R0): below the threshold
pKd (HTRA2, O43464): below the threshold
pKd (Inadl_2, Q8NI35): below the threshold
pKd (Inadl_3, Q8NI35): below the threshold
pKd (Inadl_5, Q8NI35): below the threshold
pKd (Inadl_6, Q8NI35): below the threshold
pKd (LNX1_2, Q8TBB1): below the threshold
pKd (LNX1_3, Q8TBB1): below the threshold
pKd (MAGI3_2, Q5TCQ9): 5.13
pKd (MPP7, Q5T2T1): below the threshold
pKd (NHERF3_4, Q5T2W1): below the threshold
pKd (PDZD2_2, O15018): 4.2
pKd (RADIL, Q96JH8): below the threshold
pKd (SCRIB_2, Q14160): 4.04
pKd (SNTG2, Q9NY99): 4.35
pKd (SNX27, Q96L92): 4.84
pKd (TJP1_2, Q07157): below the threshold
pKd (TJP1_3, Q07157): below the threshold
